In article PMC4995099, “Drosophila Nanos acts as a molecular clamp that modulates the RNA-binding and repression activities of Pumilio”:

T1: Pum PUM-HD WT (EMSA);Nos ZC WT (EMSA) (Drosophila melanogaster?;Drosophila …, UniProt P25822;P25724 1091-1426;289-401, |)
T1 sequence 1: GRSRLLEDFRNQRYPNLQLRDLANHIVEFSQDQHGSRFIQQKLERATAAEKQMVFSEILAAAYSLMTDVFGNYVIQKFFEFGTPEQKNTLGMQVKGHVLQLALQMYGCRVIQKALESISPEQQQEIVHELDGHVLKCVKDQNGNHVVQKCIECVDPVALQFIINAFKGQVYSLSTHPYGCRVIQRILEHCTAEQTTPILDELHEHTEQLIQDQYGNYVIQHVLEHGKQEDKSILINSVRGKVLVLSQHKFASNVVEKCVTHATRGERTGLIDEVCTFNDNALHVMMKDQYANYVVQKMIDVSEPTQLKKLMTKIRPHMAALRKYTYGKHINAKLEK
T1 sequence 2: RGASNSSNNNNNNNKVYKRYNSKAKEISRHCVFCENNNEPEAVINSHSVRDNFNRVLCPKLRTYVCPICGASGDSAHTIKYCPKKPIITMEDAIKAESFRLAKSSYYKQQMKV

T2: Pum PUM-HD WT (EMSA) (UniProt P25822 1091-1426)
T2 sequence: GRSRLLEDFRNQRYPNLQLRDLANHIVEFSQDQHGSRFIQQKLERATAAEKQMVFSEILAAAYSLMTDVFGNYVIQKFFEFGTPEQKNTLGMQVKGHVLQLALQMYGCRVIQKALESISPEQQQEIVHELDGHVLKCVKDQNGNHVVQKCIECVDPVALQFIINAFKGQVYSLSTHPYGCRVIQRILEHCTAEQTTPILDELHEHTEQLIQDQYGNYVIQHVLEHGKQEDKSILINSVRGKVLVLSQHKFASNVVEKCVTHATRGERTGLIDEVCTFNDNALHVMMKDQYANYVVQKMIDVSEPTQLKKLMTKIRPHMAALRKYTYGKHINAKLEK

T3: Nos ZC WT (EMSA) (UniProt P25724 289-401)
T3 sequence: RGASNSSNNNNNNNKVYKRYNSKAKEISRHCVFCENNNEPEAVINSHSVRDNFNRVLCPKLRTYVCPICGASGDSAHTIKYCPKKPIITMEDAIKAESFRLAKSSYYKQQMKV

T4: Pum F1367S (UniProt P25822 1091-1426, F1367S)
T4 sequence: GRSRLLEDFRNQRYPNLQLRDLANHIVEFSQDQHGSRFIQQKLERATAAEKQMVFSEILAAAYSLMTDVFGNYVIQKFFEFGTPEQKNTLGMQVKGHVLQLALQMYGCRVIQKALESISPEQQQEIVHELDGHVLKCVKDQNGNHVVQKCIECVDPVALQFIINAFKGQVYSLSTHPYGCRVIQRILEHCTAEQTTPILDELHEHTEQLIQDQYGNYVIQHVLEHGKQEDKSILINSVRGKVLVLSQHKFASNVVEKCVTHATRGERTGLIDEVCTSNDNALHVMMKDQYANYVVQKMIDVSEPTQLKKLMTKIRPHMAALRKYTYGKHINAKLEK

T5: Pum Q1337A (UniProt P25822 1091-1426, Q1337A)
T5 sequence: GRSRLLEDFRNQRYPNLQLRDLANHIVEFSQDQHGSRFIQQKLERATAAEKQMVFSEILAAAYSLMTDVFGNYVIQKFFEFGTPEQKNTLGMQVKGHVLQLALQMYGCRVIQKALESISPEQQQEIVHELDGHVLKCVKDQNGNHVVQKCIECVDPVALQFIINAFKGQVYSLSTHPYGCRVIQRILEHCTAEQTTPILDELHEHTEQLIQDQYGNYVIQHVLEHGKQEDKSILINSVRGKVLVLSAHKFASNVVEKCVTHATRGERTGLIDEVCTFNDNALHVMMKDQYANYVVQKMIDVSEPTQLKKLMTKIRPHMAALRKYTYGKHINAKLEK


Tests used:
[1] = molecular target: T1, Pum PUM-HD WT (EMSA);Nos ZC WT (EMSA); assay: EMSA; Pum titrated, 400 nM Nos ZC constant; EMSA: 50 mM Tris-HCl pH 7.6, 150 mM NaCl, 2 mM DTT, 2 ug/mL BSA, 0.01% Igepal CA-630, 0.02% bromophenol blue, 20% glycerol, 3 h at 4 C; 1 nM Cy5 RNA or 0.3 nM 32P RNA; conditions: protein: recombinant;recombinant, tags: N-terminal 3xFLAG, Halo-tag removed by TEV;C-terminal V5, copies: 1;1, label: 5' 32P (EMSA), none (crystal)
Pum PUM-HD WT (EMSA) [2] = molecular target: T2, Pum PUM-HD WT (EMSA); assay: EMSA; Pum alone; Kd printed only in figure; EMSA: 50 mM Tris-HCl pH 7.6, 150 mM NaCl, 2 mM DTT, 2 ug/mL BSA, 0.01% Igepal CA-630, 0.02% bromophenol blue, 20% glycerol, 3 h at 4 C; 1 nM Cy5 RNA or 0.3 nM 32P RNA; conditions: protein: recombinant; tags: N-terminal 3xFLAG; Halo-tag removed by TEV; label: 5' 32P (EMSA); none (crystal)
Pum PUM-HD WT (EMSA) [3] = molecular target: T2, Pum PUM-HD WT (EMSA); assay: EMSA; EMSA: 50 mM Tris-HCl pH 7.6, 150 mM NaCl, 2 mM DTT, 2 ug/mL BSA, 0.01% Igepal CA-630, 0.02% bromophenol blue, 20% glycerol, 3 h at 4 C; 1 nM Cy5 RNA or 0.3 nM 32P RNA; conditions: protein: recombinant; tags: N-terminal 3xFLAG; Halo-tag removed by TEV; label: 5' Cy5
Nos ZC WT (EMSA) = molecular target: T3, Nos ZC WT (EMSA); assay: EMSA; up to 1 uM Nos ZC; EMSA: 50 mM Tris-HCl pH 7.6, 150 mM NaCl, 2 mM DTT, 2 ug/mL BSA, 0.01% Igepal CA-630, 0.02% bromophenol blue, 20% glycerol, 3 h at 4 C; 1 nM Cy5 RNA or 0.3 nM 32P RNA; conditions: protein: recombinant; tags: C-terminal V5; Halo-tag removed by TEV; label: 5' Cy5
Pum F1367S = molecular target: T4, Pum F1367S; assay: EMSA; RNA label form not stated; EMSA: 50 mM Tris-HCl pH 7.6, 150 mM NaCl, 2 mM DTT, 2 ug/mL BSA, 0.01% Igepal CA-630, 0.02% bromophenol blue, 20% glycerol, 3 h at 4 C; 1 nM Cy5 RNA or 0.3 nM 32P RNA; conditions: protein: recombinant; tags: N-terminal 3xFLAG; Halo-tag removed by TEV; label: 5' Cy5
Pum Q1337A = molecular target: T5, Pum Q1337A; assay: as above; conditions: protein: recombinant; tags: N-terminal 3xFLAG; Halo-tag removed by TEV; label: 5' Cy5
[4] = molecular target: T1, Pum PUM-HD WT (EMSA);Nos ZC WT (EMSA); assay: EMSA; Nos ZC titrated at 100 nM Pum; high affinity, Kd only in figure; EMSA: 50 mM Tris-HCl pH 7.6, 150 mM NaCl, 2 mM DTT, 2 ug/mL BSA, 0.01% Igepal CA-630, 0.02% bromophenol blue, 20% glycerol, 3 h at 4 C; 1 nM Cy5 RNA or 0.3 nM 32P RNA; conditions: protein: recombinant;recombinant, tags: N-terminal 3xFLAG, Halo-tag removed by TEV;C-terminal V5, copies: 1;1, label: 5' Cy5

Row | Binder | Kd [1] [nM] | fold weaker RNA-binding affinity (Kd ratio) (Pum PUM-HD WT (EMSA) [2]) | binding result (Pum PUM-HD WT (EMSA) [3]) | binding result (Nos ZC WT (EMSA)) | binding result (Pum F1367S) | binding result (Pum Q1337A) | binding result [4]
1 | AAAUUGUACAUAAGCC (ssRNA) [hb NRE2 RNA 16-nt] | 8.7 | 3 fold weaker than with Nos ZC | – | – | – | – | –
2 | UUGUUGUCGAAAAUUGUACAUAAGCC (ssRNA) [Cy5-hb NRE2 RNA] | – | – | binds | no binding | binds | binds | binds
